# Laboratory results as given in the Human Domainome abundance scans (Beltran et al. 2025).
# ± gives the uncertainty stated by the source.
# Assay: abundance fitness (aPCA) (normalised: wild type 0, dead -1); higher = more abundant; growth selection in yeast, the domain comes from the species named
# Conditions: Homo sapiens
row,Substance,abundance fitness
1,"BAG family molecular chaperone regulator 3 A13C, O95817",-0.603 ± 0.46
2,"BAG family molecular chaperone regulator 3 A13D, O95817",0.279 ± 0.07
3,"BAG family molecular chaperone regulator 3 A13E, O95817",-0.47 ± 0.28
4,"BAG family molecular chaperone regulator 3 A13G, O95817",-0.412 ± 0.094
5,"BAG family molecular chaperone regulator 3 A13K, O95817",0.174 ± 0.17
6,"BAG family molecular chaperone regulator 3 A13L, O95817",0.127 ± 0.13
7,"BAG family molecular chaperone regulator 3 A13M, O95817",-0.172 ± 0.31
8,"BAG family molecular chaperone regulator 3 A13Q, O95817",-0.167 ± 0.086
9,"BAG family molecular chaperone regulator 3 A13R, O95817",-0.316 ± 0.13
10,"BAG family molecular chaperone regulator 3 A13S, O95817",-0.321 ± 0.2
11,"BAG family molecular chaperone regulator 3 A13T, O95817",0.169 ± 0.2
12,"BAG family molecular chaperone regulator 3 A13V, O95817",0.328 ± 0.087
13,"BAG family molecular chaperone regulator 3 A13W, O95817",-0.774 ± 0.32
14,"BAG family molecular chaperone regulator 3 A13Y, O95817",-0.047 ± 0.46
15,"BAG family molecular chaperone regulator 3 D18C, O95817",-0.009 ± 0.15
16,"BAG family molecular chaperone regulator 3 D18E, O95817",-0.058 ± 0.074
17,"BAG family molecular chaperone regulator 3 D18F, O95817",-0.343 ± 0.23
18,"BAG family molecular chaperone regulator 3 D18H, O95817",-0.394 ± 0.17
19,"BAG family molecular chaperone regulator 3 D18I, O95817",-0.205 ± 0.27
20,"BAG family molecular chaperone regulator 3 D18K, O95817",0.22 ± 0.18
21,"BAG family molecular chaperone regulator 3 D18L, O95817",-0.313 ± 0.12
22,"BAG family molecular chaperone regulator 3 D18M, O95817",-0.406 ± 0.26
23,"BAG family molecular chaperone regulator 3 D18N, O95817",0.148 ± 0.068

row,Substance,abundance fitness
1,"BAG family molecular chaperone regulator 3 D18P, O95817",0.065 ± 0.092
2,"BAG family molecular chaperone regulator 3 D18Q, O95817",0.012 ± 0.19
3,"BAG family molecular chaperone regulator 3 D18R, O95817",-0.116 ± 0.09
4,"BAG family molecular chaperone regulator 3 D18S, O95817",-0.047 ± 0.13
5,"BAG family molecular chaperone regulator 3 D18T, O95817",0.03 ± 0.11
6,"BAG family molecular chaperone regulator 3 D18W, O95817",-0.317 ± 0.16
7,"BAG family molecular chaperone regulator 3 D18Y, O95817",-0.641 ± 0.35
8,"BAG family molecular chaperone regulator 3 D20A, O95817",-0.557 ± 0.15
9,"BAG family molecular chaperone regulator 3 D20C, O95817",-0.2 ± 0.11
10,"BAG family molecular chaperone regulator 3 D20E, O95817",-0.018 ± 0.1
11,"BAG family molecular chaperone regulator 3 D20F, O95817",-0.09 ± 0.32
12,"BAG family molecular chaperone regulator 3 D20G, O95817",0.08 ± 0.06
13,"BAG family molecular chaperone regulator 3 D20I, O95817",-0.558 ± 0.37
14,"BAG family molecular chaperone regulator 3 D20K, O95817",-0.429 ± 0.23
15,"BAG family molecular chaperone regulator 3 D20L, O95817",-0.495 ± 0.088
16,"BAG family molecular chaperone regulator 3 D20M, O95817",0.365 ± 0.15
17,"BAG family molecular chaperone regulator 3 D20N, O95817",0.044 ± 0.13
18,"BAG family molecular chaperone regulator 3 D20P, O95817",-0.22 ± 0.19
19,"BAG family molecular chaperone regulator 3 D20Q, O95817",-0.789 ± 0.33
20,"BAG family molecular chaperone regulator 3 D20R, O95817",-0.228 ± 0.085
21,"BAG family molecular chaperone regulator 3 D20S, O95817",0.15 ± 0.087
22,"BAG family molecular chaperone regulator 3 D20V, O95817",-0.241 ± 0.074
23,"BAG family molecular chaperone regulator 3 D20W, O95817",-0.42 ± 0.15

row,Substance,abundance fitness
1,"BAG family molecular chaperone regulator 3 D20Y, O95817",-0.479 ± 0.3
2,"BAG family molecular chaperone regulator 3 D31A, O95817",-0.22 ± 0.12
3,"BAG family molecular chaperone regulator 3 D31C, O95817",-0.334 ± 0.074
4,"BAG family molecular chaperone regulator 3 D31E, O95817",0.166 ± 0.077
5,"BAG family molecular chaperone regulator 3 D31F, O95817",-1.13 ± 0.34
6,"BAG family molecular chaperone regulator 3 D31G, O95817",-0.491 ± 0.084
7,"BAG family molecular chaperone regulator 3 D31K, O95817",-0.477 ± 0.28
8,"BAG family molecular chaperone regulator 3 D31L, O95817",-0.732 ± 0.1
9,"BAG family molecular chaperone regulator 3 D31M, O95817",-0.182 ± 0.15
10,"BAG family molecular chaperone regulator 3 D31N, O95817",-0.813 ± 0.26
11,"BAG family molecular chaperone regulator 3 D31P, O95817",-0.886 ± 0.22
12,"BAG family molecular chaperone regulator 3 D31Q, O95817",-0.557 ± 0.22
13,"BAG family molecular chaperone regulator 3 D31R, O95817",-0.473 ± 0.071
14,"BAG family molecular chaperone regulator 3 D31S, O95817",-0.67 ± 0.2
15,"BAG family molecular chaperone regulator 3 D31T, O95817",-0.56 ± 0.18
16,"BAG family molecular chaperone regulator 3 D31V, O95817",-0.433 ± 0.12
17,"BAG family molecular chaperone regulator 3 D31W, O95817",-0.33 ± 0.13
18,"BAG family molecular chaperone regulator 3 D41A, O95817",-0.82 ± 0.23
19,"BAG family molecular chaperone regulator 3 D41C, O95817",-0.641 ± 0.42
20,"BAG family molecular chaperone regulator 3 D41E, O95817",-0.874 ± 0.2
21,"BAG family molecular chaperone regulator 3 D41G, O95817",-0.621 ± 0.14
22,"BAG family molecular chaperone regulator 3 D41H, O95817",-0.541 ± 0.095
23,"BAG family molecular chaperone regulator 3 D41I, O95817",-0.622 ± 0.45

row,Substance,abundance fitness
1,"BAG family molecular chaperone regulator 3 D41K, O95817",-1.05 ± 0.41
2,"BAG family molecular chaperone regulator 3 D41L, O95817",-1.1 ± 0.17
3,"BAG family molecular chaperone regulator 3 D41M, O95817",-1 ± 0.45
4,"BAG family molecular chaperone regulator 3 D41N, O95817",-0.664 ± 0.12
5,"BAG family molecular chaperone regulator 3 D41P, O95817",-0.65 ± 0.16
6,"BAG family molecular chaperone regulator 3 D41Q, O95817",-0.364 ± 0.32
7,"BAG family molecular chaperone regulator 3 D41R, O95817",-0.59 ± 0.084
8,"BAG family molecular chaperone regulator 3 D41S, O95817",-0.868 ± 0.27
9,"BAG family molecular chaperone regulator 3 D41T, O95817",-0.612 ± 0.23
10,"BAG family molecular chaperone regulator 3 D41V, O95817",-0.851 ± 0.099
11,"BAG family molecular chaperone regulator 3 D41W, O95817",-1.16 ± 0.44
12,"BAG family molecular chaperone regulator 3 D51A, O95817",-0.682 ± 0.12
13,"BAG family molecular chaperone regulator 3 D51C, O95817",-0.48 ± 0.22
14,"BAG family molecular chaperone regulator 3 D51F, O95817",-0.234 ± 0.48
15,"BAG family molecular chaperone regulator 3 D51G, O95817",-0.62 ± 0.19
16,"BAG family molecular chaperone regulator 3 D51H, O95817",-0.262 ± 0.42
17,"BAG family molecular chaperone regulator 3 D51K, O95817",-0.037 ± 0.3
18,"BAG family molecular chaperone regulator 3 D51L, O95817",-0.859 ± 0.2
19,"BAG family molecular chaperone regulator 3 D51M, O95817",-0.658 ± 0.36
20,"BAG family molecular chaperone regulator 3 D51Q, O95817",-0.602 ± 0.42
21,"BAG family molecular chaperone regulator 3 D51R, O95817",-0.568 ± 0.17
22,"BAG family molecular chaperone regulator 3 D51S, O95817",-0.383 ± 0.14
